Where two headings read alike, the source gives them in different places.

Usually EC50 stands for the concentration needed to bring the measured effect to its halfway point. For orientation: Kd means the concentration at which binding is half-saturated.

The target in experiment [1] is T1, Human CD3 epsilon (CD3epsilon) protein (His Tag) (human, UniProt P07766 23-126).
T1 construct: extracellular domain; Bought protein; also called recombinant human CD3epsilon ECD; not shown: His tag
Briefly: ELISA, antigen coated on plate. Background: In an ELISA, binding on a coated surface is turned into a signal by an enzyme label.

Experiment [2] has as its target T2, Cynomolgus Monkey CD3 epsilon protein (Cynomolgus monkey, UniProt Q95LI5 22-117).
T2 construct: Bought protein; also called Cyno-Monkey CD3epsilon
T2 sequence (looked up): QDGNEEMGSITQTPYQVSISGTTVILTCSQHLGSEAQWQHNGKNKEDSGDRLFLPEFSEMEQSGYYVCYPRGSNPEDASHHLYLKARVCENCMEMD
Briefly: ELISA, antigen coated on plate.

In experiment [3] the target is T3, human CD3 expressed on cells (Jurkat cells; human CD4 T cells) (human, UniProt P07766 23-207).
T3 construct: whole, on cells; also called human CD3 receptor on T cell surface; human CD3 expressing cells (Jurkat cells)
T3 sequence (P07766 23-207): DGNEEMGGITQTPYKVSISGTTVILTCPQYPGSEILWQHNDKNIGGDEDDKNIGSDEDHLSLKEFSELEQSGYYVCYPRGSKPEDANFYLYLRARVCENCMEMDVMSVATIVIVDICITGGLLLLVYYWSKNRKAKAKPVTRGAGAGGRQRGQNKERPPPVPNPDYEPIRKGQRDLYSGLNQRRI
Briefly: flow cytometry on Jurkat cells, one site saturation fit. Set-up: Best fit-Bmax: unit not given here. A general note: A flow cytometer gives signals particle by particle.

Experiment [4] has as its target T3, human CD3 expressed on cells (Jurkat …). Briefly: flow cytometry on Jurkat cells. How it is done: Various concentrations of testing mAbs were added to Jurkat cells, and then the binding activity of mAbs onto the surface of cells was detected by 2nd antibody-FITC. OKT3 was used as the positive control. The stained cells were analyzed by using a BD Biosciences FACSCanto II instrument and Flow Jo Version software. The binding EC₅₀ were calculated by using GraphPad Prism software equation: Nonlinear regression (curve fit)—log (agonist) vs. response-Variable slope.

Experiment [5] concerns the target T4, Human CD3 Gamma (CD3gamma) protein (human, UniProt P09693 23-116).
T4 construct: extracellular domain; Bought protein
Briefly: ELISA, antigen coated on plate.

For experiment [6], the target named is T5, Human CD3 delta (CD3 delta) protein (His Tag) (human, UniProt P04234 22-105).
T5 construct: extracellular domain; Bought protein; not shown: His tag
T5 sequence (P04234 22-105, stated change not applied): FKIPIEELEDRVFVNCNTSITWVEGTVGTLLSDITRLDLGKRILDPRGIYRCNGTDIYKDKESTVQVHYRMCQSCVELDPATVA
Briefly: ELISA, antigen coated on plate.

Experiment [7] has as its target T1, Human CD3 epsilon (CD3epsilon) protein …. Briefly: ELISA, antigen coated on plate, HRP-labelled 2nd antibody. How it is done: (§1) Human CD3epsilon, CD3delta and CD3gamma proteins were pre-coated in 96-well plates, respectively. The binding affinity of eight mAbs at various concentrations to these three different CD3 protein extracellular domain was detected by corresponding HRP labeled 2nd antibodies. The binding EC₅₀ (concentration of the test antibody when reaching half maximum binding) were analyzed by using GraphPad Prism software equation: Nonlinear regression (curve fit)—log (agonist) vs. response-Variable slope.

Experiment [8] deals with T4, Human CD3 Gamma (CD3gamma) protein. Described as above. How it is done:
as §1

The target of experiment [9] is T5, Human CD3 delta (CD3 delta) protein …. Described as above. How it is done: as §1
In experiment [10] the target is T3, human CD3 expressed on cells (Jurkat …). Briefly: flow cytometry on human CD4 T cells.
The target in experiment [11] is T1, Human CD3 epsilon (CD3epsilon) protein …. Briefly: ELISA, antigen coated on plate. The source holds these as a separate data set.
Experiment [12] concerns the target T2, Cynomolgus Monkey CD3 epsilon protein. Briefly: ELISA, antigen coated on plate. This is another data set of the same source.
For experiment [13], the target named is T3, human CD3 expressed on cells (Jurkat …). Briefly: flow cytometry on Jurkat cells, one site saturation fit.
The target in experiment [14] is T2, Cynomolgus Monkey CD3 epsilon protein. Briefly: ELISA, antigen coated on plate. The source holds these as a separate data set.

T4 sequence (P09693 23-116): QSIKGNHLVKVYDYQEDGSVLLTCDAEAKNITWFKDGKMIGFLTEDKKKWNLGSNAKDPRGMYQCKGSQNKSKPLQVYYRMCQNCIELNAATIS
T1 sequence (P07766 23-126): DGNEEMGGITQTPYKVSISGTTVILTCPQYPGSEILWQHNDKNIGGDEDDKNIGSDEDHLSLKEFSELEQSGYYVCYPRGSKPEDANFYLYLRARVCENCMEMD

B1: WBP3311_2.306.4 (antibody, IgG2b, V domains shown)
VH: QVQLQQSGPELVKPGASVRISCKASGFAFTDYYIHWVKQRPGQGLEWIGWISPGNVNTKYNENFKGRATLTADLSSSTAYMQLSSLTSEDSAVYFCARDGYSLYYFDYWGQGTTLTVSS
VL: DIVMSQSPSSLTVSAGEKVTMSCKSSQSLLNSRTRKNYLAWYQQKPGQSPKLLIYWASTRQSGVPDRFTGSGSGTAFTLTISGVQAEDLAVYFCTQSHTLRTFGGGTKLEIK
notes: Mouse monoclonal antibody from hybridoma; also called W3311-2.306.4; W3311-2.306.4-mIgG2bK
Take B1: the EC50 came to 0.012 nM in [1], 0.011 nM in experiment [2], 0.57 nM in experiment [4] and 0.461 nM in experiment [10]. For the same molecule, in [3], the “Best fit-Bmax” value was found to be 1.17e-10. Binding in experiment [3] was characterised by a dissociation constant (Kd) of 0.191 nM. For the same molecule, the “MFI (FACS)” value in experiment [4] turned out to be 3360 MFI. For the same molecule, the binding result in experiment [5] and in experiment [6] was “no binding” each time. Also, the “ELISA (A450)” value in [7] is 1.46 A450; in experiment [8], 0.06 A450; in experiment [9] it was 0.05 A450; in [11], 2.91 A450; in [12], 2.82 A450.

B2: WBP331_2.488.33 (antibody, V domains shown)
VH: QVQLQQSGPELVKPGTSVKISCKASGFSFTNYYIHWVKQRPGQGPEWIGWIFPGTVNTKYNEKFKGKATLTADTSSNTAFMQLSSLTSADSAVYFCARDSVGIYYFDFWGLGTTLTVSS
VL: DIVMSQSPSSLAVSAGEKVTVSCKSSQSLLNNRTRKNYLAWYQQKPGQSPKLLIYWASTRESGVPDRFTGSGSGTDFTLTISSVQAEDLAVYYCTQSFILRTFGGGTKLEIK
notes: Mouse monoclonal antibody from hybridoma; also called WBP3311_2.488.33; W3311-2.488.33
As for B2, the values for the EC50 in experiment [1], in experiment [2] and in experiment [4] were 0.026 nM, 0.019 nM and 2.97 nM, respectively. The “Best fit-Bmax” value in [3] came to 1.3e-10. This molecule gave a dissociation constant (Kd) in experiment [3] of 1.32 nM. Moreover, the “MFI (FACS)” value in experiment [4] came to 2270 MFI. Moreover, the binding result in [5] and in experiment [6] was “no binding” each time. In addition, the “ELISA (A450)” value in experiment [7] was found to be 1.7 A450; in experiment [8], 0.06 A450; in [9], 0.05 A450; in [11] it was 2.91 A450; in experiment [12], 2.83 A450.

B3: WBP3311_2.383.47 (antibody, V domains shown)
VH: QVQLQQSGPELVKPGASVRISCKTSGFTFTNYYIHWVIQRPGQGLEWIGWISPENGNTKYNENFQDKATLTADISSSTAYMHLSSLTSEDSAVYFCARDGYSLYYFDYWGQGTTLTVSS
VL: DIVMSQSPSSLTVSAGEKVTMSCKSSQSLLNSRTRKNYLAWYQQKPGQSPKLLIYWASIRVSGVPDRFTGSGSGTTFTLTISGVQAEDLAVYYCTQSHTLRTFGGGTKLEIK
notes: Mouse monoclonal antibody from hybridoma
As for B3, the EC50 amounted to 0.074 nM in [1], 0.028 nM in experiment [2] and 0.91 nM in experiment [4]. In experiment [3], the “Best fit-Bmax” value is 1.12e-10. This molecule also registered an equilibrium dissociation constant (Kd) in experiment [3] of 0.403 nM. Moreover, the “MFI (FACS)” value in experiment [4] amounted to 2130 MFI. Moreover, the binding result in [5] and in [6] was “no binding” in each case. The “ELISA (A450)” value is 1.61 A450 in experiment [7]; 0.05 A450 in experiment [8]; 0.05 A450 in experiment [9]; 2.79 A450 in [11]; 2.76 A450 in experiment [12].

B4: WBP3311_2.844.8 (antibody, V domains shown)
VH: QVQLQQSGPELVKPGASVRISCKASGFAFTDYYIHWVKQRPGQGLEWIGWISPGNVNTKYNENFKGRATLTADLSSSTAYMQLSSLTSEDSAVYFCARDGYSLYYFDYWGQGTTLTVSS
VL: DIVMSQSPSSLTVSAGEKVTMSCKSSQSLLNSRTRKNYLAWYQQKPGQSPKLLIYWASTRESGVPDRFTGSGSGTAFTLTISGVQAEDLAVYFCTQSHTLRTFGGGTKLEIK
notes: Mouse monoclonal antibody from hybridoma; also called W3311-2.844.8; clone 2.844.8
With B4, the concentration for a half-maximal effect (EC50) in experiment [1] was 0.011 nM; in [2], 0.009 nM; in [4], 0.77 nM. Also, the “Best fit-Bmax” value in experiment [3] came out at 1.19e-10. In addition, the Kd in experiment [3] was 0.252 nM. The “MFI (FACS)” value in experiment [4] was 984 MFI. Besides, the binding result in experiment [5] and in experiment [6] was “no binding” in each case. Besides, the “ELISA (A450)” value was 1.54 A450 in experiment [7]; 0.07 A450 in experiment [8]; 0.06 A450 in experiment [9]; 2.92 A450 in experiment [11]; 2.75 A450 in experiment [12].

B5: WBP3311_2.400.5 (antibody, V domains shown)
VH: QVQLQQSGPELVNPGASVKISCKASGYSFTNYYLHWVKQRPGQGLEWIGWIFPESDNTKYNEKLKGKATLTADTSSDTAYMHLSSLTFEDSAVYFCARDSVGNYFFDFWGQGTTLTVSS
VL: DIVMSQSPSSLAVSAGEKVTMRCKSSQSLVNNRTRKNYLAWYQQKPGQPPKLLIYWASTRESGVPDRFTGSGSGTDFTLTISSVQAEDLAVYYCAQSFILRTFGGGTKLEIK
notes: Mouse monoclonal antibody from hybridoma; also called W3311-2.400.5
For the molecule B5, the EC50 is 0.053 nM in experiment [1], 0.024 nM in experiment [2] and 2.5 nM in [4]. In [3], the “Best fit-Bmax” value amounted to 1.13e-10. In experiment [3], the dissociation constant (Kd) turned out to be 0.934 nM. In experiment [4], the “MFI (FACS)” value turned out to be 2740 MFI. In addition, the binding result in experiment [5] and in [6] was “no binding” each time. Further, the “ELISA (A450)” value stood at 1.57 A450 in [7]; 0.05 A450 in experiment [8]; 0.05 A450 in experiment [9]; 2.83 A450 in experiment [11]; 2.79 A450 in experiment [12].

B6: WBP3311_2.482.5 (antibody, V domains shown)
VH: QVQLQQSGPELVKPGSSVKISCKPSGYTFTTYYIHWVKQRPGQGLEWIGWIFPGSDNIKYNENFKDKATLTADTSSSTAYMQLSSLTSEDSAVYFCARDSVSRYYFDYWGQGTILTVSS
VL: DIVMSQSPSSLAVSAGEKVTMSCKSSQSLVNDRTRKNYLAWYQQKPGLSPKLLIYWASTRESGVPDRFTGSGSGTDFTLTISSVQAEDLAVYYCAQSFILRTFGGGTKLEIK
notes: Mouse monoclonal antibody from hybridoma; also called W3311-2.482.5
For B6, the 50% effective concentration (EC50) is 0.069 nM in [1], 0.028 nM in [2] and 3.71 nM in [4]. For the same molecule, in [3], the “Best fit-Bmax” value turned out to be 1.3e-10. Binding in experiment [3] was characterised by a dissociation constant (Kd) of 2.29 nM. In addition, in experiment [4], the “MFI (FACS)” value amounted to 2390 MFI. The binding result in [5] and in [6] was “no binding” each time. Also, the “ELISA (A450)” value in experiment [7] stood at 1.33 A450; in experiment [8], 0.06 A450; in [9] it was 0.05 A450; in experiment [11], 2.95 A450; in [12] it was 2.87 A450.

B7: WBP3311_2.166.48-z1-uIgG1K (antibody, V domains shown)
VH: QVQLVQSGAEVKKPGSSVKVSCKASGYSFTTYYIHWVRQAPGQGLEWMGWIFPGNDNIKYSEKFKGRVTITADKSTSTAYMELSSLRSEDTAVYYCAIDSVSIYYFDYWGQGTLVTVSS
VL: DIVMTQSPDSLAVSLGERATINCKSSQSLLNSRTRKNYLAWYQQKPGQPPKLLIYWASTRKSGVPDRFSGSGSGTDFTLTISSLQAEDVAVYYCTQSFILRTFGGGTKVEIK
notes: Humanized antibody; uIgG1K means human IgG1 constant region and kappa light chain; expressed in 293F cells; also called W3311-2.166.48-z1-uIgG1K
Take B7: in experiment [13], the affinity, expressed as Kd, was 0.201 nM. Besides, the concentration giving a half-maximal response (EC50) in experiment [14] was 0.043 nM; in experiment [10], 1.01 nM.

B8: WBP3311_2.306.4-z1-uIgG1K (antibody, V domains shown)
VH: QVQLVQSGAEVKKPGSSVKVSCKASGFAFTDYYIHWVRQAPGQGLEWMGWISPGNVNTKYNENFKGRVTITADKSTSTAYMELSSLRSEDTAVYYCARDGYSLYYFDYWGQGTLVTVSS
VL: DIVMTQSPDSLAVSLGERATINCKSSQSLLNSRTRKNYLAWYQQKPGQPPKLLIYWASTRQSGVPDRFSGSGSGTDFTLTISSLQAEDVAVYYCTQSHTLRTFGGGTKVEIK
notes: Humanized antibody; uIgG1K means human IgG1 constant region and kappa light chain; expressed in 293F cells; also called W3311-2.306.4-z1-uIgG1K
Take B8: in experiment [13], binding was characterised by a dissociation constant (Kd) of 0.053 nM. For the same molecule, the EC50 in experiment [14] is 0.043 nM; in experiment [10], 0.253 nM.

Source of the values: US20200299384A1 (published 2020).
